Where a chain is given by its changes, count along the chain named. Like-named read-outs stand apart in the source and are kept apart here.
T1: human CD19 (His-tagged) (human, UniProt P15391 20-291)
T1 construct: Captured on chips carrying anti-histidine antibodies
T1 sequence (looked up): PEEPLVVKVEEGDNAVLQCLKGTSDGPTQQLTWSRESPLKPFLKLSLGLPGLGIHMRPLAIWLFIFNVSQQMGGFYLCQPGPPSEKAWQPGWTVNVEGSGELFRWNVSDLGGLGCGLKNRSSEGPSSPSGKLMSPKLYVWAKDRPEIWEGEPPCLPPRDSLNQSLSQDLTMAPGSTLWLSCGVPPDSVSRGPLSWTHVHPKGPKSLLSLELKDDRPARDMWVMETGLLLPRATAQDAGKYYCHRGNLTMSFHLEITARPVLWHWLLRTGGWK

B1: Antibody #25, CD19×CD3 DICAD (bispecific antibody, name in Kabat numbering)
chain 1: DIQLTQSPASLAVSLGQRATISCKASQSVDYDGDSYLNWYQDIPGQPPKLLIYDASNLVSGIPPRFSGSGSGTDFTLNIHPVEKVDAATYHCQQSTEDPWTFGGGTKLEIKGGSGGSGGSEVQLVESGGGLVQPGGSLRLSCAASGYSFTGYTMNWVRDAPGKCLEWVALINPYKGVSTYNQKFKDRFTISVDKSKNTAYLQMNSLRAEDTAVYYCARSGYYGDSDWYFDVWGQGTLVTVSS
chain 2: DIQMTQSPSSLSASVGDRVTITCRASQDIRNYLNWYQKKPGKAPKLLIYYTSRLESGVPSRFSGSGSGTDYTLTISSLQPEDFATYYCQQGNTLPWTFGCGTKVEIKGGSGGSGGSQVQLQQSGAELVRPGSSVKISCKASGYAFSSYWMNWVKKRPGQGLEWIGQIWPGDGDTNYNGKFKGKATLTADESSSTAYMQLSSLASEDSAVYFCARRETTTVGRYYYAMDYWGQGTSVTVSS
notes: Same mutations as #9, with the 9-residue linker; also called 025; Sample25; not shown: hinge-CH2-CH3
B2: Antibody #43, CD19×CD3 DICAD (bispecific antibody)
chain 1: B1 chain 1 with D42Q
chain 2: B1 chain 2 with K155Q
notes: also called 043; Sample43; not shown: hinge-CH2-CH3
B3: Antibody #1, CD19×CD3 Di-Diabody from HD37 and UCHT1, no interface mutations (bispecific antibody)
chain 1: DIQLTQSPASLAVSLGQRATISCKASQSVDYDGDSYLNWYQQIPGQPPKLLIYDASNLVSGIPPRFSGSGSGTDFTLNIHPVEKVDAATYHCQQSTEDPWTFGGGTKLEIKRTVAAEVQLVESGGGLVQPGGSLRLSCAASGYSFTGYTMNWVRQAPGKGLEWVALINPYKGVSTYNQKFKDRFTISVDKSKNTAYLQMNSLRAEDTAVYYCARSGYYGDSDWYFDVWGQGTLVTVSS
chain 2: DIQMTQSPSSLSASVGDRVTITCRASQDIRNYLNWYQQKPGKAPKLLIYYTSRLESGVPSRFSGSGSGTDYTLTISSLQPEDFATYYCQQGNTLPWTFGQGTKVEIKRTVAAQVQLQQSGAELVRPGSSVKISCKASGYAFSSYWMNWVKQRPGQGLEWIGQIWPGDGDTNYNGKFKGKATLTADESSSTAYMQLSSLASEDSAVYFCARRETTTVGRYYYAMDYWGQGTSVTVSS
notes: Peptide 1: CD19VL-linker-CD3VH-hinge-CH2-CH3; also called 001; Sample01; not shown: hinge-CH2-CH3
B4: Antibody #9, CD19×CD3 DICAD (bispecific antibody, name in Kabat numbering)
chain 1: B3 chain 1 with Q42D, Q155D, G160C
chain 2: B3 chain 2 with Q38K, Q100C, Q151K
notes: also called 009; not shown: hinge-CH2-CH3
B5: HD37, anti-CD19 parental antibody (#21) (antibody, V domains shown)
VH: QVQLQQSGAELVRPGSSVKISCKASGYAFSSYWMNWVKQRPGQGLEWIGQIWPGDGDTNYNGKFKGKATLTADESSSTAYMQLSSLASEDSAVYFCARRETTTVGRYYYAMDYWGQGTSVTVSS
VL: DIQLTQSPASLAVSLGQRATISCKASQSVDYDGDSYLNWYQQIPGQPPKLLIYDASNLVSGIPPRFSGSGSGTDFTLNIHPVEKVDAATYHCQQSTEDPWTFGGGTKLEIK
notes: also called 021
B6: Antibody #50, TRIAD CD19×CD3 (Fab arm anti-CD19) (bispecific antibody)
chain 1: DIQMTQSPSSLSASVGDRVTITCRASQDIRNYLNWYQKKPGKAPKLLIYYTSRLESGVPSRFSGSGSGTDYTLTISSLQPEDFATYYCQQGNTLPWTFGCGTKVEIK
chain 2: B5 VH with Q39K
chain 3: B5 VL with Q42D
chain 4: EVQLVESGGGLVQPGGSLRLSCAASGYSFTGYTMNWVRDAPGKCLEWVALINPYKGVSTYNQKFKDRFTISVDKSKNTAYLQMNSLRAEDTAVYYCARSGYYGDSDWYFDVWGQGTLVTVSS
chain 5: B5 VH
chain 6: B5 VL
B7: Antibody #54, TRIAD CD19×CD3 (Fab arm anti-CD19) (bispecific antibody)
chain 1: B5 VL with Q42K, G104C
chain 2: B6 chain 4 with D39K, C44G
chain 3: B6 chain 1 with K38D, C100Q
chain 4: B5 VH with Q39D, G44C
chain 5: B5 VH
chain 6: B5 VL
B8: Antibody #63, DICAD CD19×CD3 (1:1) bispecific (bispecific antibody)
chain 1: EIVLTQSPATLSVTPGERATLSCSASSSVSYMHWYQKKPGQAPRLLIYDTSKLASGIPARFSGSGSGTDFTLTISSLEPEDFAVYYCFQGSVYPFTFGCGTKLEIKRTVAAEVQLVESGGGLVQPGGSLRLSCAASGFTFNTYAMNWVRKAPGKGLEWVGRIRSKYNNYATYYADSVDKGRFTISRDDSKNSLYLQMNSLKTEDTAVYYCVRHGNFGNSYVSWFAYWGQGTLVTVSS
chain 2: EAVVTQEPSLTVSPGGTVTLTCRSSTGAVTTSNYANWVQDKPGQAPRGLIGGTNKRAPWTPARFSGSLLGGKAALTITGAQPEDEAGYYCALWYSNLWVFGGGTKLTVLRTVAAQVQLQESGPGLVKPSQTLSLTCTVSGGSISTSGMGVGWIRDHPGKCLEWIGHIWWDDDKRYNPALKSRVTISVDTSKNQFSLKLSSVTAADTAVYYCARMELWSYYFDYWGQGTTLTVSSASEPKSDKTHTCPPCPAPPVAGGPSVPLPPPKPKDTLMISRTPEVTCVVVDVSQEDPEVKFNWYVDGVGVHNAKTKPREEQFNSTYRVVSVLTVLHQDWLNGKEYKCKVSNKGLPSSIEKTISKAKGQPREPQVYTLPPCRDELTKNQVSLWCLVKGFYPSDIAVEWESNGQPENNYKTTPPVLDSDGSFFLYSKLTVDKSRWQQGNVFSCSVMHEALHNHYTQKSLSLSPGK
chain 3: DKTHTCPPCPAPPVAGGPSVFLFPPKPKDTLMISRTPEVTCVVVDVSQEDPEVKFNWYVDGVEVHNAKTKPREEQFNSTYRVVSVLTVLHQDWLNGKEYKCKVSNKGLPSSIEKTISKAKGQPREPQVCTLPPSRDELTKNQVSLSCAVKGFYPSDIAVEWESNGQPENNYKTTPPVLDSDGSFFLVSKLTVDKSRWQQGNVFSCSVMHEALHNRFTQKSLSLSPGK
notes: also called 063; #63-CD3×CD19 bispecific
B9: Antibody #55, CD3×CD19×CD8 tri-specific antibody (other)
chain 1: B8 chain 1
chain 2: B8 chain 2
heavy: QVQLVESGGGVVQPGRSLRLSCAASGPTFSDFGMNWVRKAPGKGLEWVALIYYDGSNKFYADSVKGRFTISRDNSKNTLYLQMNSLRAEDTAVYYCAKPHYDGYYHFFDSWGQGTLVTVSSASTKGPSVFPLAPGSSKSTSGTAALGCLVKDYFPEPVTVSWNSGALTSGVHTFPAVLQSSGLYSLSSVVTVPSSSLGTQTYICNVNHKPSNTKVDKKVEPKSCDKTHTCPPCPAPPVAGGPSVFLFPPKPKDTLMISRTPEVTCVVVDVSQEDPEVKFNWYVDGVEVHNAKTKPREEQFNSTYRVVSVLTVLHQDWLNGKEYKCKVSNKGLPSSIEKTISKAKGQPREPQVCTLPPSRDELTKNQVSLSCAVKGFYPSDIAVEWESNGQPENNYKTTPPVLDSDGSFFLVSKLTVDKSRWQQGNVFSCSVMHEALHNRFTQKSLSLSPGK
light: not shown
notes: Tri-specific antibody of four chains

Assays:
[1] = target: T2, human CD3 (human, UniProt P07766 23-126); assay: SPR (Biacore); CD3 captured on anti-His antibody chip, antibody injected at 5 concentrations
T2 construct: not shown: A CD3 delta or gamma partner chain is possible if the reagent was a heterodimer
T2 sequence (P07766 23-126 limits assumed): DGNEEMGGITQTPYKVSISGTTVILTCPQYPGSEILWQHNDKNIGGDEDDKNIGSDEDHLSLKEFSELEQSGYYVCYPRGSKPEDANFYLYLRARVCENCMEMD
Description: (§1) A series of sample antibodies were assayed for SPR (Surface Plasmon Resonance) signals upon human CD3 binding on the Biacore platform. Ka, Kd and KD were calculated from the experimental results and used to evaluate affinity of the antibodies for human CD3. CD3 molecules as ligands were immobilized to chips conjugated with anti-histine antibodies. Sample antibodies, at 5 different concentrations, were injected to the system to be analyzed.

[2] = target: T1, human CD19 (His-tagged); assay: SPR (Biacore); CD19 captured on anti-His antibody chip, antibody injected at 5 concentrations
Description: as §1, with “CD19” for “CD3”, “Kₐ,” for “Ka,”, “CD19. CD19” for “CD3. CD3”, “analyzed. Anti-CD3 antibody UCHT1 and anti-CD19 antibody HD37 were also examined as #20 and #21, respectively. The results are shonw in FIG. 7 and Table 15.” for “analyzed.”

[3] = target: T1, human CD19 (His-tagged); assay: as above; remark: listed apart in the source
Description: as §1, with “Affinity: Affinity kinetics studies based on human CD19-binding assays. A” for “A”, “CD19” for “CD3”, “Kₐ,” for “Ka,”, “CD19. CD19” for “CD3. CD3”

[4] = target: T3, human CD3E (human, UniProt P07766 23-126, limits assumed); assay: SPR (BIAcore); human CD3E captured on anti-His antibody chip, antibody at 5 concentrations
T3 construct: Captured on chips carrying anti-histidine antibodies, 'using the same method' as the His-tagged CD19
T3 sequence (P07766 23-126 limits assumed): as above
Description: (§2) Binding affinity for human CD3E or human CD19 of the CD3×CD19 bispecific antibody was tested by BIAcore, and Kₐ, Kd and KD values of the antibody were calculated based on the results. His-tagged human CD19 was used as ligand and captured on chips conjugated with anti-histine antibodies. Candidate molecules in five different concentrations were analyzed for their affinity for CD19. Affinity for human CD3E was examined using the same method.

[5] = target: T1, human CD19 (His-tagged); assay: SPR (BIAcore); His-tagged human CD19 captured on anti-His antibody chip, antibody at 5 concentrations
Description: as §2

[6] = target: T3, human CD3E; assay: SPR (BIAcore); human CD3E captured on anti-His antibody chip, antibody at 5 concentrations; remark: listed apart in the source
Description: (§3) Binding affinity for human CD3E or human CD19 of the CD3×CD19×CD8 tri-specific antibody was tested by BIAcore. Kₐ, Kd and KD were calculated from the experimental results and used to evaluate affinity of the antibodies for human CD3E and CD19. CD3E and CD19 molecules as ligands were immobilized to chips conjugated with anti-histine antibodies. Antibody molecules in five different concentrations were analyzed for their affinity for CD19. Affinity for human CD3E was examined using the same method.

[7] = target: T1, human CD19 (His-tagged); assay: SPR (BIAcore); human CD19 captured on anti-His antibody chip, antibody at 5 concentrations
Description: as §3

Binder | Kd [1] | Kd [2] | Kd [3] | also measured
B1 | 34.9 nM | 1 nM | – | –
B2 | 269 nM | 0.537 nM | – | –
B3 | – | 0.769 nM | – | –
B4 | 172 nM | 0.26 nM | – | –
B5 | – | 0.537 nM | 3.81 nM | binding result [1]: no binding
B6 | – | – | 1.73 nM | –
B7 | – | – | 0.806 nM | –
B8 | – | – | – | Kd [4]: 31.4 nM; koff [4]: 0.0153 s⁻¹; kon [4]: 488000 M⁻¹ s⁻¹; Kd [5]: 1.83 nM; koff [5]: 0.000669 s⁻¹; kon [5]: 365000 M⁻¹ s⁻¹
B9 | – | – | – | Kd [6]: 31.3 nM; Kd [7]: 8.63 nM

Source: patent US20210102001A1 (CHIMAGEN BIOSCIENCES, published 2021)
